Data on two molecules can be found in PMC12923946 (Cell Reports Medicine, 2026).

The target of assay [1] is RSV prefusion F trimer (competition assays) (human respiratory syncytial virus A, …, UniProt P03420, stabilised). Briefly: ELISA. (In general: In an ELISA, binding on a coated surface is turned into a signal by an enzyme label.)
Another assay addresses RSV-F A2 (DS-Cav-1) (Human respiratory syncytial virus A, …, UniProt P03420, stabilised). The experiment in a line: ELISA.
In the next assay the target is hMPV-F A1(NL/1/00) (human metapneumovirus A1, strain NL/1/00, UniProt Q91F55, stabilised). The experiment in a line: ELISA.
The next assay deals with T1, hMPV F-DS-CavEs2-IPDS (human metapneumovirus (strain not …, N-linked glycan at Asn172 (partially modelled))).
T1 chain: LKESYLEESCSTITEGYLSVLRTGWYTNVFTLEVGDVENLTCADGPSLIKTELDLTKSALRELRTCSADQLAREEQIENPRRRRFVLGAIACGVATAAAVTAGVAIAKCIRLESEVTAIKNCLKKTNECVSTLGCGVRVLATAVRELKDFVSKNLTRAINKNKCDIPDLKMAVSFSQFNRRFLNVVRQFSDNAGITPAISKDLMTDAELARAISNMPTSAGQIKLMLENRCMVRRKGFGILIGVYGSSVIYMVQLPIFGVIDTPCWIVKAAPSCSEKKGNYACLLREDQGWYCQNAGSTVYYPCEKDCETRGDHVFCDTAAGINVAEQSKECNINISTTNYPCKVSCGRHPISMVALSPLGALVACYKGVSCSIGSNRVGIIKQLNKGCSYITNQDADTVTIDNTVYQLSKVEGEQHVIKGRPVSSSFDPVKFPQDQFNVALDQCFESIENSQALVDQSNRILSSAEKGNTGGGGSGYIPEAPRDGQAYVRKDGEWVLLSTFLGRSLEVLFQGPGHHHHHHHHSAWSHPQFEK
The experiment in a line: cryo-EM structure.

B1: RM 5-1 (antibody, V domains shown)
VH: QGQLVQSGPEVKKPGATVKVSCRASAYPFGNYGITWVRQVPGQGLEWVGWISAYTGHTKFPQNFQGRVTLTADTSTSTGYMELRSLTSDDTAVYYCARGPCCSSPRPYDIWGQGTMVTVSS
VL: DIQMTQSPSTLSASVGDRVTITCRASQSIDDWLAWYQHSPGKAPKLLIYRASRLESGVPSRFSGSGSGTEFTLTISSLQPDDFASYYCQQCYTYSQTFGQGTRVEIK
As for B1, the binding result (in assay [1]; with RSV-F A2 (DS-Cav-1); with hMPV-F A1(NL/1/00)) was “binds” each time.

B2: RM 5-1 Fab (Fab, V domains shown)
VH: B1 VH
VL: B1 VL
What is called stoichiometry N is the number of molecules, sites or subunits per partner or assembly. Turning to B2, the “stoichiometry N” value in the assay with hMPV F-DS-CavEs2-IPDS was determined as 3 Fabs per trimer.
